The results in this text go back to patent US20130230533A1 (Regeneron, published 2013).

In assay [1] the target is T1, Dimeric human CD48-mFc (human).
T1 chain: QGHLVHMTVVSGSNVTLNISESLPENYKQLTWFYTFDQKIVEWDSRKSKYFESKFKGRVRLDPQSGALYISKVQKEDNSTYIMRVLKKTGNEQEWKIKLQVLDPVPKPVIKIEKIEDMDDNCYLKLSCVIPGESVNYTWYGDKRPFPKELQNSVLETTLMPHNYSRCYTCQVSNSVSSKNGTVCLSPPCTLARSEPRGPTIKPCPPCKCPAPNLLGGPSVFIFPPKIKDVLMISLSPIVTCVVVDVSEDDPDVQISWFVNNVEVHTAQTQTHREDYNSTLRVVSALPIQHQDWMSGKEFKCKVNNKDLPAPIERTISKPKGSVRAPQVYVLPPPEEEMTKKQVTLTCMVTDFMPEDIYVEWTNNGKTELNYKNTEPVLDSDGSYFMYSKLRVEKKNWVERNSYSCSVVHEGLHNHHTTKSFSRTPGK
Put plainly: SPR (Biacore T100), 25 C, antibody captured by anti-Fc, dimeric CD48-mFc in solution. On the procedure: (§1) Measurements were conducted on a T100-2 BIACORE™ instrument (Biacore Life Sciences division of GE Healthcare, Piscataway, N.J.). Antibodies (either with mouse Fc [designated “H2M” or “H3M”] or human IgG4 Fc [designated “H4H”]) were captured through an anti-Fc chip surface, and CD48 was flowed over the surface either in a monomeric (soluble CD48 expressed with a myc-myc-hexa-histidine C-terminal tag [mmH]) or dimeric (soluble CD48 expressed with a C-terminal Fc fusion [mFc]) format.
(§2) The soluble CD48 was applied to the flow cell in separate injections at different concentrations, and kinetic association (kₐ) and dissociation (kd) rate constants were determined by fits to the kinetic binding data using Biacore software. Binding dissociation equilibrium constants and dissociation half-times were calculated from the kinetic rate constants as: KD=kd/kₐ; t_{1/2}=(ln 2/kd) (units: ka=M⁻¹*s⁻¹; kd=s⁻¹; KD=M; T½=min) (Tables 3-6).
In general terms: SPR reads the build-up and loss of mass on a sensor chip optically.

For assay [2], the target named is T2, Monomeric human CD48-mmH (human).
T2 construct: also called soluble CD48 expressed with a myc-myc-hexa-histidine C-terminal tag [mmH]
T2 chain: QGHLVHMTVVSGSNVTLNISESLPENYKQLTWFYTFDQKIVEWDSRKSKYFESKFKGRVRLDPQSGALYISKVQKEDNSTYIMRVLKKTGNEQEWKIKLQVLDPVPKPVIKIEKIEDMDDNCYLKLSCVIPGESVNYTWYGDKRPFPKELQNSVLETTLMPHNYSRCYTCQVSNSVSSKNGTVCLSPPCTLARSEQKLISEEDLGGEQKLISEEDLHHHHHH
The experiment in a line: SPR (Biacore T100), 25 C, antibody captured by anti-Fc, monomeric CD48-mmH in solution. On the procedure: as §1, §2

Assay [3] addresses T3, Monomeric human CD48-mmH (human).
T3 chain: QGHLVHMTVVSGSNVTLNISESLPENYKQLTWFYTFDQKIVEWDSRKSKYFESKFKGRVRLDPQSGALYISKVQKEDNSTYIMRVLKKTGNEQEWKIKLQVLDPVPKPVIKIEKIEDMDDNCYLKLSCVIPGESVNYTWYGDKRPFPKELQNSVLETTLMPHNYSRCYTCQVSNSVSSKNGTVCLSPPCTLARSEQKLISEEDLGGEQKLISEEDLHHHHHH
The experiment in a line: SPR (Biacore), antibody captured by anti-Fc, CD48 in solution, 37 C. The method, then:
as §1, §2

Assay [4] concerns the target T4, Dimeric human CD48-mFc (human).
T4 construct: the whole entry is the construct; also called hCD48-mFc
T4 chain: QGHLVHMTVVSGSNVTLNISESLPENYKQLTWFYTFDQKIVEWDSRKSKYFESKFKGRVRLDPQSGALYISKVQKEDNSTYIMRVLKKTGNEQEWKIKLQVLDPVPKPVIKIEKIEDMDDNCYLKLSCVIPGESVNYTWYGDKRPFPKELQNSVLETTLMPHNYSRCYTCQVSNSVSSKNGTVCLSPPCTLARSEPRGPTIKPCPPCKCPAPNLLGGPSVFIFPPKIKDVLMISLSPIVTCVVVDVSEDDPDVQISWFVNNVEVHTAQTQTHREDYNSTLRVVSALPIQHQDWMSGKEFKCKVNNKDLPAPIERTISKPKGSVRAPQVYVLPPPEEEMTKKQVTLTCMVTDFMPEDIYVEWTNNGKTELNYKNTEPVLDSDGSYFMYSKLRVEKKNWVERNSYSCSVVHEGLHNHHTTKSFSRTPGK
Described as above. On the procedure:
as §1, §2

B1: H2M1764N (antibody, mouse IgG2, V domains shown)
VH: QVQLVESGGGVVQPGRSLRLSCAASGFTFSDYGMHWVRQAPGKGLEWVAVIWNDGSNKNYADSVKGRFSISSDSSKNTLYLHMNSLRAEDTAVYYCARSLYSTSPWYFDLWGRGTLVTVSS
VL: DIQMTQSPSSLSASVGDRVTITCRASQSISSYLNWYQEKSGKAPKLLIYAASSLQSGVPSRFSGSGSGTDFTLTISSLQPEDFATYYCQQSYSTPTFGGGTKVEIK
notes: Human variable domains, mouse IgG2 Fc (prefix H2M)
Regarding B1, in the assay with Dimeric human CD48-mFc [1], the Kd was found to be 1.03 nM, the T½ was determined as 43 min, the off-rate constant (koff) was 0.000266 s⁻¹ and the kon worked out at 259000 M⁻¹ s⁻¹. In the assay with Monomeric human CD48-mmH [2], this molecule displayed a Kd of 23.5 nM, a T½ of 4 min, a koff of 0.00285 s⁻¹ and a kon of 121000 M⁻¹ s⁻¹.

B2: H4H1764N (antibody, human IgG4, V domains shown)
VH: QVQLVESGGGVVQPGRSLRLSCAASGFTFSDYGMHWVRQAPGKGLEWVAVIWNDGSNKNYADSVKGRFSISSDSSKNTLYLHMNSLRAEDTAVYYCARSLYSTSPWYFDLWGRGTLVTVSS
VL: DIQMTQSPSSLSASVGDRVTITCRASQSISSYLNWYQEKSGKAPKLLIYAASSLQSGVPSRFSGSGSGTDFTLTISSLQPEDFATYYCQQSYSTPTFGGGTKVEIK
notes: Human IgG4 Fc (prefix H4H)
In the assay with Dimeric human CD48-mFc [1], B2 gave a Kd of 0.226 nM, a T½ of 191 min, a koff of 6.05e-05 s⁻¹ and a kon of 268000 M⁻¹ s⁻¹. For the same molecule, in the assay with Monomeric human CD48-mmH [2], the Kd is 23.6 nM, the T½ was determined as 5 min, the off-rate (koff) was 0.00248 s⁻¹ and the kon was found to be 105000 M⁻¹ s⁻¹.

B3: H2M1710N (antibody, mouse IgG2, V domains shown)
VH: QVQLVQSGADMKKPGASVRVSCKASGYTFTDYFIHWVRQAPGQGPEWMGWINPDSGATNYAQQFQGRVTMTRDTSISATYMEMSRLRSDDTAVFYCARDKDGSGWYLDDWGQGTLVTVSS
VL: EIVLTQSPATLSLSPGERATLSCRASQSVNIYLAWYQQKPGQAPRLLIYDASNRASGIPARFSGSGSGTDFTLTISSLEPEDFAVYYCQQRSNWPPSITFGQGTRLEIK
notes: Human variable domains, mouse IgG2 Fc (H2M)
As for B3, in the assay with Monomeric human CD48-mmH [3], the Kd was found to be 153 nM, the T½ was found to be 2 min, the koff is 0.0052 s⁻¹ and the kon turned out to be 34000 M⁻¹ s⁻¹. For the same molecule, in the assay with Dimeric human CD48-mFc [4], the Kd stood at 0.885 nM, the T½ amounted to 27 min, the koff is 0.000426 s⁻¹ and the kon came to 481000 M⁻¹ s⁻¹.

B4: H2M1763N (antibody, mouse IgG2, V domains shown)
VH: QIQLVQSGAEMKRPGTSVKVSCKASGYTFTSYGINWVRQAPGQGLEWMGWISAYNGDTNYAQKLQGRVTMTTDTSTTTAYMEVRSLRSDDTAVYYCARFLTGTKDYYYGMDVWGQGTTVTVSS
VL: DIQMTQSPSSLSASVGDRVTITCQASQDISNFLNWYQQKPGKAPDLLINDASILETGVPSRFSGSGSGTDFTLTINNLQPEDIATYYCQQYDNLPLTFGGGTKVEIK
notes: as for B3
In the assay with Monomeric human CD48-mmH [3], B4 yielded a Kd of 13.5 nM, a T½ of 1 min, a koff of 0.0201 s⁻¹ and a kon of 1.49e+06 M⁻¹ s⁻¹. In addition, in the assay with Dimeric human CD48-mFc [4], the Kd is 0.293 nM, the T½ worked out at 13 min, the koff came to 0.000883 s⁻¹ and the kon was 3.02e+06 M⁻¹ s⁻¹.

B5: H4H1763N (antibody, human IgG4, V domains shown)
VH: QIQLVQSGAEMKRPGTSVKVSCKASGYTFTSYGINWVRQAPGQGLEWMGWISAYNGDTNYAQKLQGRVTMTTDTSTTTAYMEVRSLRSDDTAVYYCARFLTGTKDYYYGMDVWGQGTTVTVSS
VL: DIQMTQSPSSLSASVGDRVTITCQASQDISNFLNWYQQKPGKAPDLLINDASILETGVPSRFSGSGSGTDFTLTINNLQPEDIATYYCQQYDNLPLTFGGGTKVEIK
notes: Human IgG4 Fc (prefix H4H)
For the molecule B5, in the assay with Dimeric human CD48-mFc [1], the dissociation constant (Kd) amounted to 0.0268 nM, the T½ was determined as 211 min, the koff was found to be 5.48e-05 s⁻¹ and the kon came to 2.05e+06 M⁻¹ s⁻¹. In the assay with Monomeric human CD48-mmH [2], this molecule registered a Kd of 8.2 nM, a T½ of 2 min, a koff of 0.00631 s⁻¹ and a kon of 769000 M⁻¹ s⁻¹.

B6: H2M1712N (antibody, mouse IgG2, V domains shown)
VH: QIQLVQSGAEMKRPGTSVKVSCKASGYTFSSYGINWVRQAPGQGLEWMGWISAYNGDTNYAQKLQGRVTMTTDTSTTTAYMEVRSLRSDDTAVYYCARFLTGTKDLYYGMDVWGQGTTVTVSS
VL: DIQMTQSPSSLSASVGDRVTITCQASQDISNFLNWYQQKPGKAPDLLINDASILETGVPSRFSGSGSGTDFTLTINSLQPEDIATYYCQQYDNLPLTFGGGTKVEIK
notes: as for B3
B6: in the assay with Monomeric human CD48-mmH [3], the Kd amounted to 16.6 nM, the T½ turned out to be 1 min, the koff was found to be 0.014 s⁻¹ and the kon amounted to 846000 M⁻¹ s⁻¹. In the assay with Dimeric human CD48-mFc [4], this molecule yielded a Kd of 0.252 nM, a T½ of 17 min, a koff of 0.000685 s⁻¹ and a kon of 2.72e+06 M⁻¹ s⁻¹.

As a reminder, the Kd is the equilibrium constant for the complex coming apart. A lower Kd goes with higher affinity. For orientation: koff means the first-order rate constant of dissociation. Low values mean a long-lived complex, high ones a short-lived complex. One may read the kon as a measure of how fast the partners come together. A low value points to slow association.
